Measured values from patent US20110088129A1.

Experiments:
[1] = biological target: binding sites in brush border membrane vesicles (BBMV) from midguts of last instar Helicoverpa zea larvae (Helicoverpa zea); assay: homologous competition on H. zea BBMV
[2] = biological target: binding sites in brush border membrane vesicles (BBMV) from midguts of last instar Helicoverpa armigera larvae (Helicoverpa armigera); assay: homologous competition, 125I-Cry2Ab on H. armigera BBMV, LIGAND program
[3] = biological target: binding sites in brush border membrane vesicles (BBMV) from midguts of last instar Helicoverpa armigera larvae (Helicoverpa armigera); assay: direct saturation assay, increasing 125I-Cry2Ab on fixed H. armigera BBMV (0.2 mg/ml)
[4] = biological target: binding sites in brush border membrane vesicles (BBMV) from midguts of last instar Helicoverpa armigera larvae (Helicoverpa armigera); assay: homologous competition on H. armigera BBMV
[5] = biological target: binding sites in brush border membrane vesicles (BBMV) from midguts of last instar Helicoverpa zea larvae (Helicoverpa zea); assay: homologous competition, 125I-Cry2Ab on H. zea BBMV, LIGAND program

B1: Cry2Ab toxin (trypsin-activated Cry2Ab2 from recombinant B. thuringiensis strain BtIPS78/11) (ligand)
chain: NAVPLSITSSVNTMQQLFLNRLPQFQMQGYQLLLLPLFAQAANLHLSFIRDVILNADEWGISAATLRTYRDYLKNYTRDYSNYCINTYQSAFKGLNTRLHDMLEFRTYMFLNVFEYVSIWSLFKYQSLLVSSGANLYASGSGPQQTQSFTSQDWPFLYSLFQVNSNYVLNGFSGARLSNTFPNIVGLPGSTTTHALLAARVNYSGGISSGDIGASPFNQNFNCSTFLPPLLTPFVRSWLDSGSDREGVATVTNWQTESFETTLGLRSGAFTARGNSNYFPDYFIRNISGVPLVVRNEDLRRPLHYNEIRNIASPSGTPGGARAYMVSVHNRKNNIHAVHENGSMIHLAPNDYTGFTISPIHATQVNNQTRTFISEKFGNQGDSLRFEQNNTTARYTLRGNGNSYNLYLRVSSIGNSTIRVTINGRVYTATNVNTTTNNDGVNDNGARFSDINIGNVVASSNSDVPLDINVTLNSGTQFDLMNIMLVPTNISPLY
modifications: 125I label (chloramine T method) where used as the labelled ligand
With B1 the fold difference in concentration of binding sites between Cry2Ab and Cry1Ac [1] was 3 fold, the fold higher Kd than Cry1Ac [1] was 35 fold and the Kd [2] was 3.1 nM. It also gave a Rt (binding site concentration) (pmol/mg BBMV protein) [2] of 2.5, a concentration at which binding reached a maximum [3] of 20 nM and a concentration at which the saturation curve deviated from linearity [3] of 5 nM. The fold difference in concentration of binding sites between Cry2Ab and Cry1Ac [4] was 3 fold, the fold higher Kd than Cry1Ac [4] was 35 fold and the Kd [5] was 5.9 nM. The Rt (binding site concentration) (pmol/mg BBMV protein) [5] was 2.7.
